From the supplement of paper PMC11316812
± gives the standard deviation of the averaged measurements.

Columns and labels:
[1] = system: MCF7; assay: percentage of EdU-negative (G0-arrested) nuclei per well, 72 h; higher = more G0 arrest; conditions: reference: sequence is the full UniProt precursor, the tested protein was the secreted form or ectodomain
[2] = system: hTERT-HMEC; assay: as above; conditions: reference: sequence is the full UniProt precursor, the tested protein was the secreted form or ectodomain
[3] = protein concentration 0.0225 µM
[4] = protein concentration 0.0357143 µM
[5] = protein concentration 0.357143 µM
[6] = protein concentration 0.0217075 µM
[7] = protein concentration 0.217075 µM
[8] = protein concentration 0.00825 µM
[9] = protein concentration 0.0825 µM
[10] = protein concentration 0.03125 µM
[11] = protein concentration 0.3125 µM
[12] = protein concentration 0.0211429 µM
[13] = protein concentration 0.211429 µM
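Further: secreted proteins added to cultured cells, EdU pulse at the end, nuclei found by Hoechst imaging, EdU status from nuclear versus surrounding ring intensity ratio, PBS as neutral control.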

Sequence | percentage of EdU-negative [1, 3] [%] | percentage of EdU-negative ([1]; protein concentration 0.225 µM) [%] | percentage of EdU-negative [2, 3] [%] | percentage of EdU-negative ([2]; protein concentration 0.225 µM) [%] | further results
MLSSVVFWGLIALIGTSRGSYPFSHSMKPHLHPRLYHGCYGDIMTMKTSGATCDANSVMNCGIRGSEMFAEMDLRAIKPYQTLIKEVGQRHCVDPAVIAAIISRESHGGSVLQDGWDHRGLKFGLMQLDKQTYHPVGAWDSKEHLSQATGILTERIKAIQKKFPTWSVAQHLKGGLSAFKSGIEAIATPSDIDNDFVNDIIARAKFYKRQSF [Q86SG7] | 27.3 ± 1.4 | 25.6 ± 2.5 | 4.33 ± 0.76 | 5.09 ± 0.33 | –
MLTRLVLSAHLSSTTSPPWTHAAISWELDNVLMPSPRIWPQVTPTGRSASVRSEGNTSSLWNFSAGQDVHAIVTRTCESVLSSAVYTHGCGCVRSATNITCQSSGQQRQAARQEEENSICKAHDSREGRLGYPLSAHQPGSGGPN [Q8TAV5] | 24.95 ± 0.064 | 26 ± 2.6 | 5.652 ± 0.04 | 12.7 ± 0.25 | –
MLTTLLPILLLSGWAFCSQDASDGLQRLHMLQISYFRDPYHVWYQGNASLGGHLTHVLEGPDTNTTIIQLQPLQEPESWARTQSGLQSYLLQFHGLVRLVHQERTLAFPLTIRCFLGCELPPEGSRAHVFFEVAVNGSSFVSFRPERALWQADTQVTSGVVTFTLQQLNAYNRTRYELREFLEDTCVQYVQKHISAENTKGSQTSRSYTSLVLGVLVGSFIIAGVAVGIFLCTGGRRC [Q9UNN8] | – | – | – | – | percentage of EdU-negative [1, 4]: 24.2 ± 1.7%; percentage of EdU-negative [1, 5]: 25.3 ± 1.2%; percentage of EdU-negative [2, 4]: 4.92 ± 0.17%; percentage of EdU-negative [2, 5]: 6.22 ± 0.072%
MLVDGPSERPALCFLLLAVAMSFFGSALSIDETRAHLLLKEKMMRLGGRLVLNTKEELANERLMTLKIAEMKEAMRTLIFPPSMHFFQAKHLIERSQVFNILRMMPKGAALHLHDIGIVTMDWLVRNVTYRPHCHICFTPRGIMQFRFAHPTPRPSEKCSKWILLEDYRKRVQNVTEFDDSLLRNFTLVTQHPEVIYTNQNVVWSKFETIFFTISGLIHYAPVFRDYVFRSMQEFYEDNVLYMEIRARLLPVYELSGEHHDEEWSVKTYQEVAQKFVETHPEFIGIKIIYSDHRSKDVAVIAESIRMAMGLRIKFPTVVAGFDLVGHEDTGHSLHDYKEALMIPAKDGVKLPYFFHAGETDWQGTSIDRNILDALMLNTTRIGHGFALSKHPAVRTYSWKKDIPIEVCPISNQVLKLVSDLRNHPVATLMATGHPMVISSDDPAMFGAKGLSYDFYEVFMGIGGMKADLRTLKQLAMNSIKYSTLLESEKNTFMEIWKKRWDKFIADVATK [Q9NZK5] | – | – | – | – | percentage of EdU-negative [1, 6]: 24.5 ± 1.2%; percentage of EdU-negative [1, 7]: 28.4 ± 1.5%; percentage of EdU-negative [2, 6]: 4.31 ± 0.15%; percentage of EdU-negative [2, 7]: 7.86 ± 0.091%
MLVGQGAGPLGPAVVTAAVVLLLSGVGPAHGSEDIVVGCGGFVKSDVEINYSLIEIKLYTKHGTLKYQTDCAPNNGYFMIPLYDKGDFILKIEPPLGWSFEPTTVELHVDGVSDICTKGGDINFVFTGFSVNGKVLSKGQPLGPAGVQVSLRNTGTEAKIQSTVTQPGGKFAFFKVLPGDYEILATHPTWALKEASTTVRVTNSNANAASPLIVAGYNVSGSVRSDGEPMKGVKFLLFSSLVTKEDVLGCNVSPVPGFQPQDESLVYLCYTVSREDGSFSFYSLPSGGYTVIPFYRGERITFDVAPSRLDFTVEHDSLKIEPVFHVMGFSVTGRVLNGPEGDGVPEAVVTLNNQIKVKTKADGSFRLENITTGTYTIHAQKEHLYFETVTIKIAPNTPQLADIIATGFSVCGQISIIRFPDTVKQMNKYKVVLSSQDKDKSLVTVETDAHGSFCFKAKPGTYKVQVMVPEAETRAGLTLKPQTFPLTVTNRPMMDVAFVQFLASVSGKVSCLDTCGDLLVTLQSLSRQGEKRSLQLSGKVNAMTFTFDNVLPGKYKISIMHEDWCWKNKSLEVEVLEDDMSAVEFRQTGYMLRCSLSHAITLEFYQDGNGRENVGIYNLSKGVNRFCLSKPGVYKVTPRSCHRFEQAFYTYDTSSPSILTLTAIRHHVLGTITTDKMMDVTVTIKSSIDSEPALVLGPLKSVQELRREQQLAEIEARRQEREKNGNEEGEERMTKPPVQEMVDELQGPFSYDFSYWARSGEKITVTPSSKELLFYPPSMEAVVSGESCPGKLIEIHGKAGLFLEGQIHPELEGVEIVISEKGASSPLITVFTDDKGAYSVGPLHSDLEYTVTSQKEGYVLTAVEGTIGDFKAYALAGVSFEIKAEDDQPLPGVLLSLSGGLFRSNLLTQDNGILTFSNLSPGQYYFKPMMKEFRFEPSSQMIEVQEGQNLKITITGYRTAYSCYGTVSSLNGEPEQGVAMEAVGQNDCSIYGEDTVTDEEGKFRLRGLLPGCVYHVQLKAEGNDHIERALPHHRVIEVGNNDIDDVNIIVFRQINQFDLSGNVITSSEYLPTLWVKLYKSENLDNPIQTVSLGQSLFFHFPPLLRDGENYVVLLDSTLPRSQYDYILPQVSFTAVGYHKHITLIFNPTRKLPEQDIAQGSYIALPLTLLVLLAGYNHDKLIPLLLQLTSRLQGVRALGQAASDNSGPEDAKRQAKKQKTRRT | – | – | – | – | percentage of EdU-negative [1, 8]: 22.7 ± 1.3%; percentage of EdU-negative [1, 9]: 26.29 ± 0.074%; percentage of EdU-negative [2, 8]: 5.23 ± 0.14%; percentage of EdU-negative [2, 9]: 7.14 ± 1.1%
MLVRRGARAGPRMPRGWTALCLLSLLPSGFMSLDNNGTATPELPTQGTFSNVSTNVSYQETTTPSTLGSTSLHPVSQHGNEATTNITETTVKFTSTSVITSVYGNTNSSVQSQTSVISTVFTTPANVSTPETTLKPSLSPGNVSDLSTTSTSLATSPTKPYTSSSPILSDIKAEIKCSGIREVKLTQGICLEQNKTSSCAEFKKDRGEGLARVLCGEEQADADAGAQVCSLLLAQSEVRPQCLLLVLANRTEISSKLQLMKKHQSDLKKLGILDFTEQDVASHQSYSQKTLIALVTSGALLAVLGITGYFLMNRRSWSPTGERLGEDPYYTENGGGQGYSSGPGTSPEAQGKASVNRGAQENGTGQATSRNGHSARQHVVADTEL | 26.6 ± 1.4 | 27.23 ± 0.19 | 5.14 ± 0.39 | 5.89 ± 0.59 | –
MLWLFQSLLFVFCFGPGNVVSQSSLTPLMVNGILGESVTLPLEFPAGEKVNFITWLFNETSLAFIVPHETKSPEIHVTNPKQGKRLNFTQSYSLQLSNLKMEDTGSYRAQISTKTSAKLSSYTLRILRQLRNIQVTNHSQLFQNMTCELHLTCSVEDADDNVSFRWEALGNTLSSQPNLTVSWDPRISSEQDYTCIAENAVSNLSFSVSAQKLCEDVKIQYTDTKMILFMVSGICIVFGFIILLLLVLRKRRDSLSLSTQRTQGPAESARNLEYVSVSPTNNTVYASVTHSNRETEIWTPRENDTITIYSTINHSKESKPTFSRATALDNVV [Q96DU3] | 24.69 ± 0.12 | 25 ± 1.3 | 4.5 ± 0.13 | 5.94 ± 1.1 | –
MLWRQLIYWQLLALFFLPFCLCQDEYMESPQTGGLPPDCSKCCHGDYSFRGYQGPPGPPGPPGIPGNHGNNGNNGATGHEGAKGEKGDKGDLGPRGERGQHGPKGEKGYPGIPPELQIAFMASLATHFSNQNSGIIFSSVETNIGNFFDVMTGRFGAPVSGVYFFTFSMMKHEDVEEVYVYLMHNGNTVFSMYSYEMKGKSDTSSNHAVLKLAKGDEVWLRMGNGALHGDHQRFSTFAGFLLFETK [Q9BXJ4] | 24.8 ± 1.7 | 26.38 ± 0.15 | 5.75 ± 0.2 | 5.41 ± 0.19 | –
MMCGAPSATQPATAETQHIADQVRSQLEEKENKKFPVFKAVSFKSQVVAGTNYFIKVHVGDEDFVHLRVFQSLPHENKPLTLSNYQTNKAKHDELTYF | – | – | – | – | percentage of EdU-negative [1, 10]: 26 ± 3.3%; percentage of EdU-negative [1, 11]: 26.5 ± 2.9%; percentage of EdU-negative [2, 10]: 5.09 ± 0.59%; percentage of EdU-negative [2, 11]: 4.78 ± 0.35%
MMCPLWRLLIFLGLLALPLAPHKQPWPGLAQAHRDNKSTLARIIAQGLIKHNAESRIQNIHFGDRLNASAQVAPGLVGWLISGRKHQQQQESSINITNIQLDCGGIQISFHKEWFSANISLEFDLELRPSFDNNIVKMCAHMSIVVEFWLEKDEFGRRDLVIGKCDAEPSSVHVAILTEAIPPKMNQFLYNLKENLQKVLPHMVESQVCPLIGEILGQLDVKLLKSLIEQEAAHEPTHHETSQPSACQAGESPS [Q9BQP9] | 25.2 ± 1.2 | 26.8 ± 0.78 | 4.7 ± 0.18 | 12.1 ± 1.2 | –
MMDIYVCLKRPSWMVDNKRMRTASNFQWLLSTFILLYLMNQVNSQKKGAPHDLKCVTNNLQVWNCSWKAPSGTGRGTDYEVCIENRSRSCYQLEKTSIKIPALSHGDYEITINSLHDFGSSTSKFTLNEQNVSLIPDTPEILNLSADFSTSTLYLKWNDRGSVFPHRSNVIWEIKVLRKESMELVKLVTHNTTLNGKDTLHHWSWASDMPLECAIHFVEIRCYIDNLHFSGLEEWSDWSPVKNISWIPDSQTKVFPQDKVILVGSDITFCCVSQEKVLSALIGHTNCPLIHLDGENVAIKIRNISVSASSGTNVVFTTEDNIFGTVIFAGYPPDTPQQLNCETHDLKEIICSWNPGRVTALVGPRATSYTLVESFSGKYVRLKRAEAPTNESYQLLFQMLPNQEIYNFTLNAHNPLGRSQSTILVNITEKVYPHTPTSFKVKDINSTAVKLSWHLPGNFAKINFLCEIEIKKSNSVQEQRNVTIKGVENSSYLVALDKLNPYTLYTFRIRCSTETFWKWSKWSNKKQHLTTEASPSKGPDTWREWSSDGKNLIIYWKPLPINEANGKILSYNVSCSSDEETQSLSEIPDPQHKAEIRLDKNDYIISVVAKNSVGSSPPSKIASMEIPNDDLKIEQVVGMGKGILLTWHYDPNMTCDYVIKWCNSSRSEPCLMDWRKVPSNSTETVIESDEFRPGIRYNFFLYGCRNQGYQLLRSMIGYIEELAPIVAPNFTVEDTSADSILVKWEDIPVEELRGFLRGYLFYFGKGERDTSKMRVLESGRSDIKVKNITDISQKTLRIADLQGKTSYHLVLRAYTDGGVGPEKSMYVVTKENSVGLIIAILIPVAVAVIVGVVTSILCYRKREWIKETFYPDIPNPENCKALQFQKSVCEGSSALKTLEMNPCTPNNVEVLETRSAFPKIEDTEIISPVAERPEDRSDAEPENHVVVSYCPPIIEEEIPNPAADEAGGTAQVIYIDVQSMYQPQAKPEEEQENDPVGGAGYKPQMHLPINSTVEDIAAEEDLDKTAGYRPQANVNTWNLVSPDSPRSIDSNSEIVSFGSPCSINSRQFLIPPKDEDSPKSNGGGWSFTNFFQNKPND | – | – | – | – | percentage of EdU-negative [1, 12]: 24.2 ± 2%; percentage of EdU-negative [1, 13]: 26.8 ± 0.8%; percentage of EdU-negative [2, 12]: 4.99 ± 0.47%; percentage of EdU-negative [2, 13]: 7.62 ± 0.7%
